Data published in the Human Domainome abundance scans (Beltran et al. 2025).
± gives the uncertainty stated by the source.

B1: POU domain, class 3, transcription factor 1, residues 247 to 324; numbered along this chain, Q03052 (parent)
chain: EDAPSSDDLEQFAKQFKQRRIKLGFTQADVGLALGTLYGNVFSQTTICRFEALQLSFKNMCKLKPLLNKWLEETDSSS

Variants of: B1
Assay: abundance fitness (aPCA) (normalised: wild type 0, dead -1); higher = more abundant; growth selection in yeast, the domain comes from the species named
Conditions: Homo sapiens

Abundance fitness: each site, then its substitutions
L34: T -0.311 ± 0.18 | P -0.772 ± 0.28 | K -0.698 ± 0.28 | V -0.464 ± 0.089 | D -0.415 ± 0.21 | S -0.859 ± 0.2 | W -0.914 ± 0.2 | A -0.42 ± 0.12 | G -0.866 ± 0.12 | C -0.397 ± 0.18 | M -0.158 ± 0.15 | R -0.844 ± 0.12 | F -0.408 ± 0.19 | I -0.536 ± 0.27
K22: G -0.349 ± 0.061 | F -0.32 ± 0.19 | N 0.126 ± 0.12 | C -0.347 ± 0.13 | A 0.058 ± 0.057 | I -0.743 ± 0.42 | R -0.035 ± 0.048 | L -0.128 ± 0.066 | T -0.106 ± 0.084 | W -0.537 ± 0.12 | D 0.038 ± 0.085 | Y 0.071 ± 0.2 | V -0.428 ± 0.094 | H 0.068 ± 0.24 | P -1.04 ± 0.28
I21: G -0.689 ± 0.085 | Q -0.178 ± 0.095 | Y 0.147 ± 0.17 | C -0.521 ± 0.16 | F -0.827 ± 0.41 | L -0.184 ± 0.061 | A -0.391 ± 0.089 | D -0.527 ± 0.21 | R -0.338 ± 0.061 | P -1.18 ± 0.3 | W -0.544 ± 0.12 | H -0.64 ± 0.29 | K -0.349 ± 0.12 | M -0.236 ± 0.082 | E 0.005 ± 0.073
T26: W -0.998 ± 0.27 | I -0.951 ± 0.41 | K -0.746 ± 0.26 | L -0.699 ± 0.16 | D -0.86 ± 0.41 | E -0.298 ± 0.12 | H -0.15 ± 0.23 | M -0.559 ± 0.2 | Q -0.192 ± 0.27 | G -0.456 ± 0.083 | N -0.436 ± 0.22 | S -0.093 ± 0.075 | P -0.919 ± 0.3 | V -0.724 ± 0.14 | A -0.497 ± 0.097
R19: H -0.456 ± 0.21 | P -0.79 ± 0.2 | V -0.586 ± 0.11 | L -0.613 ± 0.13 | Q -0.218 ± 0.09 | N -0.071 ± 0.2 | I -0.212 ± 0.18 | T -0.04 ± 0.081 | K 0.259 ± 0.11 | S -0.232 ± 0.085 | E -0.36 ± 0.12 | M 0.023 ± 0.1 | W -0.484 ± 0.12 | G -0.495 ± 0.079
G24: D -0.7 ± 0.39 | I -1.02 ± 0.44 | K -0.423 ± 0.15 | Q -0.796 ± 0.19 | V -1.01 ± 0.17 | S -0.454 ± 0.1 | N -0.587 ± 0.22 | P -0.73 ± 0.21 | L -0.726 ± 0.12 | R -0.75 ± 0.1 | W -0.806 ± 0.19 | M -0.78 ± 0.25 | A -0.739 ± 0.13 | T -0.805 ± 0.2
L32: D 0.182 ± 0.11 | F 0.186 ± 0.15 | G -0.372 ± 0.057 | M -0.039 ± 0.074 | N -0.371 ± 0.2 | H 0.033 ± 0.12 | E -0.017 ± 0.066 | W -0.185 ± 0.081 | V -0.183 ± 0.071 | I 0.163 ± 0.089 | Y -0.148 ± 0.19 | S 0.152 ± 0.056 | Q 0.148 ± 0.061 | K 0.086 ± 0.074 | P -0.898 ± 0.22 | C 0.095 ± 0.1 | R 0.122 ± 0.041
D29: F -0.835 ± 0.47 | N -0.729 ± 0.39 | H -0.213 ± 0.17 | V -0.679 ± 0.12 | R -0.316 ± 0.065 | M -0.654 ± 0.17 | W -0.631 ± 0.12 | P -0.614 ± 0.16 | Q 0.184 ± 0.09 | C -0.592 ± 0.19 | K -0.057 ± 0.095 | S -0.28 ± 0.087 | L -0.547 ± 0.11 | G -0.241 ± 0.058 | T -0.512 ± 0.14 | A -0.134 ± 0.07
Q18: C -0.428 ± 0.24 | Y -0.824 ± 0.36 | E 0.028 ± 0.068 | N -0.276 ± 0.17 | D -0.259 ± 0.31 | R -0.204 ± 0.064 | L -0.25 ± 0.074 | K 0.138 ± 0.087 | M -0.472 ± 0.15 | H 0.031 ± 0.12 | T -0.034 ± 0.083 | W -0.245 ± 0.1 | A 0.074 ± 0.059 | S -0.027 ± 0.072 | V -0.316 ± 0.083 | F -0.304 ± 0.48 | P -1.16 ± 0.48
K17: C -0.868 ± 0.34 | Q 0.035 ± 0.095 | D -0.893 ± 0.38 | R 0.007 ± 0.05 | W -0.879 ± 0.24 | E -0.8 ± 0.2 | T -0.001 ± 0.1 | S -0.354 ± 0.1 | I 0.048 ± 0.2 | H -0.066 ± 0.18 | P -0.667 ± 0.25 | M -0.269 ± 0.12 | A -0.178 ± 0.067
Q27: L -0.356 ± 0.088 | F -0.325 ± 0.37 | E 0.03 ± 0.079 | K -0.257 ± 0.15 | R -0.49 ± 0.078 | G -0.595 ± 0.082 | V -0.171 ± 0.074 | P -0.053 ± 0.082 | H 0.217 ± 0.12 | C 0.069 ± 0.12 | S -0.369 ± 0.1 | D -0.836 ± 0.49 | I 0.045 ± 0.13 | M -0.288 ± 0.12 | T -0.062 ± 0.097 | W -0.209 ± 0.11 | A -0.051 ± 0.074
